# Source: the DeepSol protein solubility set
# Assay: soluble on expression in E. coli; label from the status in PepcDB or PDB records
row,Sequence,soluble on expression in E. coli
1,MEDENILRNAVNLQVLKFHYPEIESIIDIASHVAVYQFDVGSQKWLKTSIEGTFFLVKDQRARVGYVILNRNSPENLYLFINHPSNVHLVDRYLIHRTENQHVVGLWMFDPNDMSRIFNIVKESLLR,soluble
2,MKRKIIVACGGAVATSTMAAEEIKELCQSHNIPVELIQCRVNEIETYMDGVHLICTTARVDRSFGDIPLVHGMPFVSGVGIEALQNKILTILQG,soluble
3,MIGYLFGNRVLVDDKELPLIEAYYLLDKGELEVYEDDKKLSKEEFLKKCLTYDERFLIRYKAYKELRDKGYTLGTALKFGADFRVYDIGVIPKKGKRSEREHSKWVLYPVSKDETFDFYEFASKNRVAHSTRKKMLMGIVSDKIEFIEVSWKKP,soluble
4,MTPLSSPLSQYWQTVVERLPEGFTETSLSVQAKSVLTFSDFALDSVIAHPEWLAELESASPQADEWRHYAGWLQEALAGVCDDASLMRELRFFRRRIMVRIAWAQTLSLVDDETILQQLSHLAETLIVGARDWLYAACCREWGTPCNPQGVPQPLLILGMGKLGGGELNFSSDIDLIFAWPEHGETRGGRRELDNAQFFTRLGQRLIKALDQPTMDGFVYRVDMRLRPFGDSGPLVLSFAALEDYYQEQGRDWERYAMVKARLMGDNDDAWSRELRAMLRPFVFRRYIDFSVIQSLRNMKGMIAREVRRRGLKDNIKLGAGGIREIEFIVQVFQLIRGGREPSLQSRSLLPTLDAIAALHLLPENDVAQLRVAYLFLRRLENLLQSINDEQTQTLPADDLNRARLAWGMKAENWPQLVGELTDHMANVRRVFNELIGDDEADTPQEEERSEPWREVWQDALQEDDSTPVLAHLADEERRQVLTLIADFRKELDKRPIGPRGRQVLDQLMPHLLADVCSREDAAVTLSRITPLLAGIVTRTTYLELLSEFPGALKHLIMLCAASPMIASQLARYPLLLDELLDPGTLYQPTATDAYRDELRQYLLRVPEEDEEQQLEALRQFKQAQLLRIAAADIAGTLPVMKVSDHLTWLAEAMIDAVVQQAWTQMVARYGQPAHLDERQGRGFAVVGYGKLGGWELGYSSDLDLIFLHDCPMDVMTNGEREIDGRQFYLRLAQRIMHLFSTRTSSGILYEVDARLRPSGAAGMLVTSADAFADYQQHEAWTWEHQALVRARVVYGDPQLTSQFDAVRRTIMTTARDGKTLQTEVREMREKMRAHLGNKHRDRFDIKADEGGITDIEFIAQYLVLRYAHEKPKLTRWSDNVRILELLAQNGIMDEHEAQALTVAYTTLRDELHHLALQELPGHVAQTCFSKERALVQASWRKWLVAV,not soluble
5,MRFPPLLFFQDSEAVKRIANSVRGTKDDDAEIKDHSMRFIRNAISGDQQKEILNVDMLRYIAWVLVALNENIVTARTVIRERDAVEDALKNQQPEDIENFADDLKINMKYNRDLERFEIGVFDFVKYASRVTGSQYRLSNQSVIKGIVYCQKDVAIKILRESFVSNMFKVIDSIDQTTASPVLSDQTDSINELREFYKKSVYAKLTIGRGNTKAFPPCMKEIIRNLHEGINVPHMGRLAIASFLHKVGYTEDEIVEYFRNAPDFDESITRYQIKHLSGEISGVEYSPPKCETMRSNHLCFMDDDKLCHQDWMKHPLTYYEVKSRRLGMAGDPNSLEHHHHHH,not soluble
6,MNHLPVVGEDYVEIPDGRPFAPLAGKIEVVEIFGYTCPHCAHFDSKLQAWGARQAKDVRFTLVPAVFGGVWDPFARAYLAADVLGVAKRSHTAMFEAIHEKGSVPIQNVGPDELAVFYAGYGVQPDRFVATFNGPEVEKRFQAARAYALKVRPVGTPTIVVNGRYMVTGHDFEDTLRITDYLVSRERAASHGR,soluble
7,MSNIIKQLEQEQLKQNVPSFRPGDTLEVKVWVVEGSKRRLQAFEGVVIAIRNRGLHSAFTLRKVSNGVGVERVFQTHSPAVDSIAVKRKGAVRKAKLYYLRERSGKSARIKERLGALEHHHHHH,not soluble
8,HHMSAIKPDMKINLRMEGNVNGHHFVIDGDGTGKPFEGKQSMDLEVKEGGPLPFAFDILTTAFHYGNRVFAEYPDHIQDYFKQSFPKGYSWERSLTFEDGGICIARNDITMEGDTFYNKVRFHGVNFPANGPVMQKKTLKWEPSTEKMYVRDGVLTGDITMALLLEGNAHYRCDSRTTYKAKEKGVKLPGYHLVDHCIEILSHDKDYNKVKLYEHAVAHSGLPDNARR,soluble
9,MSRTAKPQNGRRRFLRDVVRTAGGLAAVGVALGLQQQTARASGVRLRPPGALNENVFASACVRCGQCVQACPYDTLKLATLASGLSAGTPYFVARDIPCEMCEDIPCAKVCPSGALNKDIASIDDSRMGLAVLLDQENCLNFQGLRCDVCYRECPKIDEAITLELDRNMRTGKHARFLPTVHSDACTGCGKCEKVCVLEQPAIKVLPLSLAKGELGHHYRFGWLEGKDGKS,not soluble
10,MSLDRPRCCLRGKECSINRFQQVESRWGYSGTSDRIRFSVNKRIFVVGFGLYGSIHGPTDYQVNIQIIHTDSNTVLGQNDTGFSCDGSASTFRVMFKEPVEVLPNVNYTACATLKGPDSHYGTKGMRKVTHESPTTGAKTCFTFCYAAGNNNGTSVEDGQIPEVIFYTEGHHHHHH,soluble
11,ITRDEVGELARVMNEMASQIERNLARISAEKNRLDTILRGMGEGLMVSDAGGTVTLVNPAFLELFGLTQSVEGRQIIEIARFPELHETFRAVVSSRSEHVEEMTLPLGDEKQVLTHWVPLMEE,not soluble
12,SYELTQPPSVSVAPGKTARITCGGNNIGSKSVHWYQQKPGQAPVLVVYDDSDRPSGIPERFSGSNSGNTATLTISRVEAGDEADYYCQVWDSSSDYVFGTGTKVTVLGQPKANPTVTLFPPSSEEFQANKATLVCLISDFYPGAVTVAWKADGSPVKAGVETTKPSKQSNNKYAASSYLSLTPEQWKSHRSYSCQVTHEGSTVEKTVAPTECS,soluble
13,MAHHHHHHMSTKLEQENCKLLENIEVISTWSSNNDSNMESFVEPSELDIKDDNEKCLNILNDNLIYDFEKEEDEKKKKNKKNEKSSSNIDLEYDTMKKYIKCIIHNKEKEEFYSFMKYICDSDLFLTFVQLFLDLIKNKDSNLNPHDYLINFFQINIEEENNTNSIKRKNLIKENNFYKKQNEELKKQINIIQVEIMDMKKKNMCNYITNFFFKDNKQEYDASKIFQKVNLYYENIRIEPPFYFTKDTFNLFINYLSDNKRNYIYNIITDMYNIYETNHTLFITKFYKKLTNFIEFYRSFDK,not soluble
14,MGSDKIHHHHHHMKSYKNYIFDFYGTLVDIRTDENKLEVWNQLTQIYNAFGCSYRPRQLKNAYHRFVEEAERFLAETVSYQYVEIDLETLFIRLLTDAPNENQSTNKPTDLETFGQVVATIFRVLSREKLEAYENTLTSLQTLAARAARLFILSNAQRIFTQAEIEQTGCADLMEKIYISSDFKMKKPEPAFLQLVLEENNLDVKETVMVGNDLTSDIAIAHELGMDSILLNTFPYSQEEIDSYRRLGWNFEVVGDIAELL,not soluble
15,MNGKVIIVTGGSSGMGKYMAKRFVSDGANVVITGRRAEALEEAKREIAAPDGGKVLTIPMDVRNPEQVAHMVERTDAEFGRIDALINNAAGNFICPAEKLSINGWNSVINIVLNGTFYCSREVGNYWIQRGLKGNIINIVATYAWHAGAGVIHSASAKAGVLAMTRTLAVEWGKKYGFRVNAIAPGPIERTGGAERLWESEEAERMTLESVPLGRLGTPEEIAAVASFLLSDEAAYINGACITVDGGQWLNRRPF,soluble
16,MAVGSVATLATEPGEDAFRKLFRFYRQSRPGTADLEGVIDFSAAHAARGKGPGAQKVIKSQLNVSSVSEQNAYRAGLQPVSKWQAYGLKGYPGFIFIPNPFLPGYQWHWVKQCLKLYSQKPNVCNLDKHMSKEETQDLWEQSKEFLRYKEATKRRPRSLLEKLRWVTVGYHYNWDSKKYSADHYTPFPSDLGFLSEQVAAACGFEDFRAEAGILNYYRLDSTLGIHVDRSELDHSKPLLSFSFGQSAIFLLGGLQRDEAPTAMFMHSGDIMIMSGFSRLLNHAVPRVLPNPEGEGLPHCLEAPLPAVLPRDSMVEPCSMEDWQVCASYLKTARVNMTVRQVLATDQNFPLEPIEDEKRDISTEGFCHLDDQNSEVKRARINPHSLEHHHHHH,soluble
17,MTFGRLWEKFLASAYYSDLSPRTQKDYLQHQKKLLAVFGKVPADSIKPEHIRRYMDKRGEQSKTQANHEKSSMSRVYSWGYERGYVKANPCAGVSKFKAKNRERYVTDKEYQAVLSVAPLPVFIAMEIAYLCAARVSDVLSLKWEQIGNDGIFIQQGKTGKKQIKAWSPRLQAAIEKAKQLPTSAYVISNQYGNRYMYKGFNEMWVEARNRAGKISGILTDFTFHDLKAKGISDYEGSSRDKQLFSGHKTEGQVLIYDRKVKVSPTLDVPLPENIPRKYSK,not soluble
18,MSKLPEIGTKISLTDKAYEIIKDAIMTNIFKPGELLIEEKLAEQLAISRTPLRAALRKLAYDHLVEINSSRNVIVANIGQKDVEEITVVREVLEPLAVKELENNIGEDELKKLEEILCRQKKAVLEDNYEELIKMEYEFHVAIGELTHNKWLHGMLKDINTIVQRYLILSGSLNKYKEVAIKEHEVIISEIRQGNYDKAVESMKCHISNVSSRMLK,not soluble
19,SMSNDKTGKSLEQENSERDVEIRDRNYFRKLSLFDDTVIAGAEMIGTSYDVFGKYCNVGSCMNSLFDERKINASEDNFKKVTILGKTLKVPYYIDCYSVGDLKYTNASGESIESYQSNISSKSRIKGNYLFFSASLKVDFDTDSLTDFENAFSRIQYTYDLYILKSSAEALKEFLKESVKTALDKADTEEDMNDLFNTWGSHFLSGVVMGGCAQYSSSTNKYTSNLTNSFDVVAAASFAGFIGLSARTGNSFMEDIKKFRSASNIKTHAIGGDLSRFDPFGGATSADQPSAEEIAAAKKAFEDWKASVPNAPELVNFADSNPLTGIWELCSDRTQKAKLKKHFETVWAPAESAKRRVHADYIDEIIIGINNTNTPPEGYIGLKSTKDENLNSKGNICLFMHKAKYDPNIDNKDCITELKFITVRDKSPEGDWVKIPQDIYISPNQYLYLCYLPAKYSAEKAIKDIQLLCSSCGSSMILPYGYNDVLDERGERANATEDDNVHYLIYSAGWK,soluble
20,MRGSHHHHHHGSMDAQSAAKCLTAVRRHSPLVHSITNNVVTNFTANGLLALGASPVMAYAKEEVADMAKIAGALVLNIGTLSKESVEAMIIAGKSANEHGVPVILDPVGAGATPFRTESARDIIREVRLAAIRGNAAEIAHTVGVTDWLIKGVDAGEGGGDIIRLAQQAAQKLNTVIAITGEVDVIADTSHVYTLHNGHKLLTKVTGAGSLLTSVVGAFCAVEENPLFAAIAAISSYGVAAQLAAQQTADKGPGSFQIELLNKLSTVTEQDVQEWATIERVTVS,soluble
21,MENESKTINIELPEEIAQGNYCNLCIVMHSPSEFVLDFIRMVPNRDTARVQNRIILTPDNAKRLLTTLSDNIHRYEVEHGEIHTEQRVSDATFTFPTKIKGEA,soluble
22,RIGIVVAAHGNSTASSMVQVVSQLLNVDNLKAVDMPLDMPPKEALRKIVEAVGEVNEENGVLLLVDMGSLSTFSEEIVRQTGIDVRTVDMVTTPIVLEAARKTALIDTQLETLHESLKNFHGYADIRQSETKQ,soluble
23,MKTIIRYFSFVMGLMLTLPSFAKEKISIMLDWYVNPDHAAIIVAQQKGFFEKNNLEVEIIEPADPALPPKLAAAEKVDLAVSYQPQLYQQVAEGLPLVRVGSLISNPLNSVVVLKKSNLKSLADLKGKKVGYSVSGFEDGLLDTMLHSIGLSNKDVELVNVNWSLSPSLLTGQVDAVIGAFRNFELNQLALEKQEGIAFFPEQYGVPAYDELILVANKNSVTDKKTSAFLTALEQATSYLQAHPNEAWQAFVSYKPNELNTPLNQLAWKDTLPFLANKPRQLDAKRYQQMAEFMQQKGLIPKALALKEYAVEIELEHHHHHH,soluble
